Results from article PMC10902388 (2024).

Biological target: MBP-16E6(4C4S) (MBP-GGGGS-TEV-16E6, construct used in SPR) (HPV16, UniProt P03126 1-158, C87S | C104S | C118S | C147S)
Experiment: SPR

B1: full-length human E6AP (C-terminal TEV-6xHis-Avi) (enzyme)
chain: MEKLHQCYWKSGEPQSDDIEASRMKRAAAKHLIERYYHQLTEGCGNEACTNEFCASCPTFLRMDNNAAAIKALELYKINAKLCDPHPSKKGASSAYLENSKGAPNNSCSEIKMNKKGARIDFKDVTYLTEEKVYEILELCREREDYSPLIRVIGRVFSSAEALVQSFRKVKQHTKEELKSLQAKDEDKDEDEKEKAACSAAAMEEDSEASSSRIGDSSQGDNNLQKLGPDDVSVDIDAIRRVYTRLLSNEKIETAFLNALVYLSPNVECDLTYHNVYSRDPNYLNLFIIVMENRNLHSPEYLEMALPLFCKAMSKLPLAAQGKLIRLWSKYNADQIRRMMETFQQLITYKVISNEFNSRNLVNDDDAIVAASKCLKMVYYANVVGGEVDTNHNEEDDEEPIPESSELTLQELLGEERRNKKGPRVDPLETELGVKTLDCRKPLIPFEEFINEPLNEVLEMDKDYTFFKVETENKFSFMTCPFILNAVTKNLGLYYDNRIRMYSERRITVLYSLVQGQQLNPYLRLKVRRDHIIDDALVRLEMIAMENPADLKKQLYVEFEGEQGVDEGGVSKEFFQLVVEEIFNPDIGMFTYDESTKLFWFNPSSFETEGQFTLIGIVLGLAIYNNCILDVHFPMVVYRKLMGKKGTFRDLGDSHPVLYQSLKDLLEYEGNVEDDMMITFQISQTDLFGNPMMYDLKENGDKIPITNENRKEFVNLYSDYILNKSVEKQFKAFRRGFHMVTNESPLKYLFRPEEIELLICGSRNLDFQALEETTEYDGGYTRDSVLIREFWEIVHSFTDEQKRLFLQFTTGTDRAPVGGLGKLKMIIAKNGPDTERLPTSHTCFNVLLLPEYSSKEKLKERLLKAITYAKGFGML
modifications: biotin on the Avi tag (BirA biotin-protein ligase) in the SPR experiments
- koff: 0.0004 s⁻¹
